Results on 4 molecules are retold here after patent US20190135908A1 (Novartis, published 2019).

Positions count from the first letter of the chain named.

The target of assay [1] is T1, Rat GDF15 HIS: HIS-tagged rat GDF15 (rat, UniProt Q9Z0J6 189-303, limits assumed).
T1 construct: also called Rat His-GDF15; not shown: His tag
T1 sequence (looked up): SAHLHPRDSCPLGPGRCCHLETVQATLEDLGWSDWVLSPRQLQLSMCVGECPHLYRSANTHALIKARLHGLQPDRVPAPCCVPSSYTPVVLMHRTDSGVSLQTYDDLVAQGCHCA
Put plainly: Biacore SPR, IgG captured via anti-human Fc, GDF15 in flow. As to the method:
(§1) Biacore assay is based on surface plasmon resonance (SPR) and were used to determine the binding affinity of antibodies to GDF15.
(§2) Anti-human Fc capture antibody was immobilized at 0.5 μg/ml on CMS chip in all four flow cells to achieve 8000 to 12,000 resonance units (RU) on the surface. Anti-hGDF15 antibodies were captured at flow rate […], at 0.25 to 0.5 μg/ml on the chip to get about 30 RU in flow cells 2, 3 and 4. GDF15 ligand was flowed at […] over captured antibodies and reference flow cell 1 for 600 and 1200 seconds contact time. Eight doses serially diluted 1 to 2, ranging from 20 to 0.156 nM, were tested. All cycles were repeated twice, regenerated between cycles with 3M MgCl₂ at flow […], 20 seconds contact time. Data were normalized by subtracting reference flow cell results. Data were fit with 1:1 Kinetics model with RI (bulk refractive index) set constant at 0.
On the technique in general: In SPR one partner is held on a chip, and binding of the other changes the refractive index at the surface.

The target of assay [2] is T2, Cyno His-GDF15: HIS-tagged cyno GDF15 (cynomolgus, UniProt G7PWZ3 197-308, limits assumed).
T2 construct: not shown: His tag
T2 sequence (looked up): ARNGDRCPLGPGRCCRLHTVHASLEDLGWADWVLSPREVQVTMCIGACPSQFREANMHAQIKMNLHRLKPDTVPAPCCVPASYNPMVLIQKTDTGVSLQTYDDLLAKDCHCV
The assay is described as above. As to the method: as §1, §2

Assay [3] has as its target T3, Mouse His-GDF15: HIS-tagged mouse GDF15 (mouse, UniProt Q9Z0J7 189-303).
T3 construct: not shown: His tag
T3 sequence (looked up): T1 sequence (looked up) with L4A, L63Q, R75K, Q110R
Described as above. On the procedure:
as §1, §2

Assay [4] deals with T4, GDF15 mutant Q247R (wrist region), albumin fusion (human, UniProt Q99988 195-308).
T4 construct: not shown: albumin fusion partner
T4 chain: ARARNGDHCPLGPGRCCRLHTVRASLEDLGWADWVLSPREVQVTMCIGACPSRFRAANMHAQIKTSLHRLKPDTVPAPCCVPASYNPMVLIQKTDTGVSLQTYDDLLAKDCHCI
Put plainly: direct ELISA on coated albumin-fusion GDF15 variant. On the procedure:
(§3) Antibody epitope was determined by a direct ELISA method with GDF15 mutants. Albumin fusion GDF15 mutants were coated in wells of a 96-well EIA plate. After blocking, serially diluted anti-hGDF15 human antibodies were added to the GDF15-coated wells, followed by incubation at an ambient temperature for a few hours. Antibody binding was detected using an anti-human IgG antibody conjugated with horseradish peroxidase (HRP) and HRP substrate.

In assay [5] the target is T5, GDF15 mutant M253R (wrist region), albumin fusion (human, UniProt Q99988 195-308).
T5 construct: not shown: albumin fusion partner
T5 chain: T4 chain with R53Q, M59R
Described as above. As to the method: as §3

For assay [6], the target named is T6, GDF15 mutant I285R (knuckle region), albumin fusion (human, UniProt Q99988 195-308).
T6 construct: not shown: albumin fusion partner
T6 chain: T4 chain with R53Q, I91R
Put plainly: direct ELISA on coated albumin-fusion GDF15 mutant. On the procedure:
as §3
In general terms: ELISA stands for enzyme-linked immunosorbent assay.

Assay [7] has as its target T7, GDF15 mutant L294R (knuckle region), albumin fusion (human, UniProt Q99988 195-308).
T7 construct: not shown: albumin fusion partner
T7 chain: T4 chain with R53Q, L100R
Put plainly: direct ELISA on coated albumin-fusion GDF15 mutant. As to the method: as §3

Assay [8] concerns the target T8, Human GDF15 native: naturally produced human GDF15 purchased from Peprotech (human, UniProt Q99988 195-308).
T8 construct: Bought protein
T8 sequence: T4 chain with R53Q
The assay can be described thus: Biacore SPR, IgG captured via anti-human Fc, GDF15 in flow. As to the method: as §1, §2

The target in assay [9] is T9, Human His-GDF15: HIS-tagged human GDF15 (human, UniProt Q99988 195-308).
T9 construct: not shown: His tag
T9 sequence: T4 chain with R53Q
The assay is described as above. As to the method: as §1, §2

Assay [10] addresses T8, Human GDF15 native: naturally produced …. Put plainly: Biacore SPR (rounded from Table 2, human GDF15 native). As to the method:
as §2

Assay [11] has as its target T10, GDF15 mutant S231R (knuckle region), albumin fusion (human, UniProt Q99988 195-308).
T10 construct: not shown: albumin fusion partner
T10 chain: T4 chain with S37R, R53Q
The assay can be described thus: direct ELISA: albumin fusion GDF15 mutant coated on the plate, serially diluted antibody, anti-human IgG-HRP detection. As to the method:
as §3

The target of assay [12] is T11, GDF15 mutant W228R (wrist region), albumin fusion (human, UniProt Q99988 195-308).
T11 construct: not shown: albumin fusion partner
T11 chain: T4 chain with W34R, R53Q
Put plainly: direct ELISA on coated albumin-fusion GDF15 variant. As to the method: as §3

The target of assay [13] is T12, GDF15 mutant D289R (finger tip region), albumin fusion (human, UniProt Q99988 195-308).
T12 construct: not shown: albumin fusion partner
T12 chain: T4 chain with R53Q, D95R
The description is as above. On the procedure: as §3

The target of assay [14] is T13, GDF15 mutant S278R (back-of-hand), albumin fusion (human, UniProt Q99988 195-308).
T13 construct: not shown: albumin fusion partner
T13 chain: T4 chain with R53Q, S84R
Described as above. As to the method: as §3

The target of assay [15] is T10, GDF15 mutant S231R (knuckle region), …. The assay can be described thus: direct ELISA on coated albumin-fusion GDF15 mutant. As to the method: as §3
Assay [16] has as its target T7, GDF15 mutant L294R (knuckle region), …. Put plainly: direct ELISA: albumin fusion GDF15 mutant coated on the plate, serially diluted antibody, anti-human IgG-HRP detection. On the procedure:
as §3

B1: ABGDF15-D (antibody, human IgG1, lambda, V domains shown)
VH: EVQLVQSGAEVKKPGESLKISCKGSGYSFTSYWIGWVRQMPGKGLEWMGVIDPDGSYTIYSPSFQGQVTISADKSISTAYLQWSSLKASDTAMYYCARYGRYGTYFDYWGQGTLVTVSS
VL: QSVLTQPPSVSGAPGQRVTISCSGSSSNIGVLYVNWYQQLPGTAPKLLIYSNDNRPSGVPDRFSGSKSGTSASLAITGLQAEDEADYYCQSWDSSSNYVFGGGTKLTVLG
notes: captured through anti-human Fc in the Biacore assay
As to B1, the Kd in [1] is 0.0281 nM; in assay [2], 0.0141 nM; in assay [3] it was 0.0457 nM. Also, the koff turned out to be 0.000456 s⁻¹ in [1], 0.000236 s⁻¹ in [2] and 0.000509 s⁻¹ in assay [3]. Further, the association rate constant (kon) in assay [1] is 1.62e+07 M⁻¹ s⁻¹; in assay [2], 1.67e+07 M⁻¹ s⁻¹; in [3], 1.11e+07 M⁻¹ s⁻¹. Further, the binding result in [4] and in assay [5] was “binds” in each case.

B2: ABGDF15-F (antibody, human IgG1, lambda, V domains shown)
VH: B1 VH with D54S
VL: B1 VL
notes: as for B1
For B2, the binding result in assay [6] is given as “no binding”; in [7], “no binding”; in assay [11] it was “binds”; in assay [4], “binds”; in assay [12], “binds”; in assay [13], “binds”. Besides, the binding result in [5] and in assay [14] was “binds” in each case. Besides, the Kd in [8] was 0.0368 nM; in assay [1], 0.0485 nM; in assay [9] it was 0.0115 nM; in assay [2], 0.035 nM; in assay [3], 0.0964 nM; in [10] it was 0.037 nM. In addition, the dissociation rate constant (koff) in assay [8] was found to be 0.000696 s⁻¹; in assay [1] it was 0.000538 s⁻¹; in assay [9], 0.00048 s⁻¹; in [2], 0.00044 s⁻¹; in assay [3], 0.000584 s⁻¹. The kon in [8] was determined as 1.89e+07 M⁻¹ s⁻¹; in assay [1], 1.11e+07 M⁻¹ s⁻¹; in assay [9], 4.19e+07 M⁻¹ s⁻¹; in [2], 1.26e+07 M⁻¹ s⁻¹; in [3], 6.05e+06 M⁻¹ s⁻¹.

B3: ABGDF15-E (antibody, human IgG1, lambda, V domains shown)
VH: B1 VH with D54G
VL: B1 VL
notes: as for B1
Turning to B3, the dissociation constant (Kd) in assay [1] was found to be 0.0396 nM; in assay [2] it was 0.0303 nM; in assay [3], 0.079 nM. Also, the koff was found to be 0.000428 s⁻¹ in assay [1], 0.00038 s⁻¹ in [2] and 0.000535 s⁻¹ in assay [3]. The kon stood at 1.08e+07 M⁻¹ s⁻¹ in assay [1], 1.26e+07 M⁻¹ s⁻¹ in assay [2] and 6.78e+06 M⁻¹ s⁻¹ in assay [3]. The binding result in [4] and in assay [5] was “binds” each time.

B4: ABGDF15-B (antibody, human IgG1, lambda, V domains shown)
VH: QVQLVQSGAEVKKPGSSVKVSCKASGGTFRSYAVSWVRQAPGQGLEWMGGIIPIFGTANYAQKFQGRVTITADESTSTAYMELSSLRSEDTAVYYCARGPIIMGYQFGLFDHWGQGTLVTVSS
VL: SYELTQPLSVSVALGQTARITCSGDNIGSHIVSWYQQKPGQAPVLVIYDKSNRPSGIPERFSGSNSGNTATLTISRAQAGDEADYYCQTWDSIGSVVFGGGTKLTVLG
notes: as for B1
Regarding B4, the binding result was “no binding” in assay [6]; “no binding” in [15]; “binds” in [16]; “binds” in assay [4]; “binds” in assay [12]; “binds” in assay [13]. The binding result in [5] and in assay [14] was “binds” each time. Moreover, the equilibrium dissociation constant (Kd) in assay [8] amounted to 0.115 nM; in [1], 0.097 nM; in assay [9], 0.0614 nM; in assay [2], 0.0836 nM; in assay [3], 0.237 nM; in assay [10] it was 0.115 nM. In addition, the koff came to 0.000389 s⁻¹ in assay [8]; 0.00052 s⁻¹ in assay [1]; 0.00054 s⁻¹ in [9]; 0.000461 s⁻¹ in assay [2]; 0.000626 s⁻¹ in assay [3]. The kon in assay [8] was 3.38e+06 M⁻¹ s⁻¹; in [1], 5.36e+06 M⁻¹ s⁻¹; in assay [9] it was 8.8e+06 M⁻¹ s⁻¹; in [2], 5.52e+06 M⁻¹ s⁻¹; in [3], 2.64e+06 M⁻¹ s⁻¹.

As a reminder, the Kd is the concentration at which binding is half-saturated. For orientation: koff means the first-order rate constant of dissociation. A lower koff goes with slow dissociation. The term kon denotes the rate constant with which the complex forms. A lower kon goes with slow association.
